Measurements: patent publication US20220211857A1, “POLYPEPTIDE DERIVATIVE AND PREPARATION METHOD THEREOF” (NINGBO KUNPENG BIOTECH CO., LTD., priority 2019, published 2022)
Where a SMILES comes first, the peptide text is derived from it. The star is where a group is joined. X1 = O=C(O)CCCCCCCCCCCCCCC(=O)NC(CCC(=O)NCCOCCOCC(=O)NCCOCCOCC(=O)NCCn1cc(CCOC(=O)*)nn1)C(=O)O; X5 = O=C(O)CCCCCCCCCCCCCCC(=O)NC(CCC(=O)NCCOCCOCCOCCn1cc(CCOC(=O)*)nn1)C(=O)O

Columns and labels:
[1] = subcutaneous administration or intramuscular injection, background statement; cited from earlier work
[2] = general background statement; cited from earlier work
[3] = Pharmacokinetics studies of PTH-1 derivatives in rats (single subcutaneous injection, LC-MS/MS, NCA); type: in vivo; conditions: rat
Protocol: PTH-1 and L6-GFA16-PTH-1 were injected subcutaneously with a single administration of 8.6 μg/kg, respectively. Animals in each group were collected blood at 0 min, 5 min, 15 min, 30 min, 1 h, 2 h, and 4 h after administration. […] Exposure time of drugs in vivo was prolonged and exposure doses were increased.

PTH: parathyroid hormone; PTH-1 is the reference substance of Table 3 (SVSEIQLMHNLGRHLNSMERVEWLRKRLQDVHNF; Amino Acid Sequence of PTH)
half-life [1]: about 12 hours

GLP-1: glucose-dependent incretin polypeptide hormone; reference substance of Table 2
biological half-life in vivo [2]: 20 minutes

CC[C@H](C)[C@H](NC(=O)[C@H](CCC(=O)O)NC(=O)[C@H](CO)NC(=O)[C@@H](NC(=O)[C@@H](N)CO)C(C)C)C(=O)N[C@@H](CCC(N)=O)C(=O)N[C@@H](CC(C)C)C(=O)N[C@@H](CCSC)C(=O)N[C@@H](Cc1c[nH]cn1)C(=O)N[C@@H](CC(N)=O)C(=O)N[C@@H](CC(C)C)C(=O)NCC(=O)N[C@@H](CCCNC(=N)N)C(=O)N[C@@H](Cc1c[nH]cn1)C(=O)N[C@@H](CC(C)C)C(=O)N[C@@H](CC(N)=O)C(=O)N[C@@H](CO)C(=O)N[C@@H](CCSC)C(=O)N[C@@H](CCC(=O)O)C(=O)N[C@@H](CCCNC(=N)N)C(=O)N[C@H](C(=O)N[C@@H](CCC(=O)O)C(=O)N[C@@H](Cc1c[nH]c2ccccc12)C(=O)N[C@@H](CC(C)C)C(=O)N[C@@H](CCCNC(=N)N)C(=O)N[C@@H](CCCCNC(=O)OCCc1cn(CCOCCOCCOCCNC(=O)CCC(NC(=O)CCCCCCCCCCCCCCC(=O)O)C(=O)O)nn1)C(=O)N[C@@H](CCCNC(=N)N)C(=O)N[C@@H](CC(C)C)C(=O)N[C@@H](CCC(N)=O)C(=O)N[C@@H](CC(=O)O)C(=O)N[C@H](C(=O)N[C@@H](Cc1c[nH]cn1)C(=O)N[C@@H](CC(N)=O)C(=O)N[C@@H](Cc1ccccc1)C(=O)O)C(C)C)C(C)C (stereo partly shown) [L3-GFA16-PTH] (H-SVSEIQLMHNLGRHLNSMERVEWLRK(X5)RLQDVHNF-OH)
half-lives (in words) ([3]; experiment of Example 10 repeated in the same way): significantly prolonged

CC[C@H](C)[C@H](NC(=O)[C@H](CCC(=O)O)NC(=O)[C@H](CO)NC(=O)[C@@H](NC(=O)[C@@H](N)CO)C(C)C)C(=O)N[C@@H](CCC(N)=O)C(=O)N[C@@H](CC(C)C)C(=O)N[C@@H](CCSC)C(=O)N[C@@H](Cc1c[nH]cn1)C(=O)N[C@@H](CC(N)=O)C(=O)N[C@@H](CC(C)C)C(=O)NCC(=O)N[C@@H](CCCNC(=N)N)C(=O)N[C@@H](Cc1c[nH]cn1)C(=O)N[C@@H](CC(C)C)C(=O)N[C@@H](CC(N)=O)C(=O)N[C@@H](CO)C(=O)N[C@@H](CCSC)C(=O)N[C@@H](CCC(=O)O)C(=O)N[C@@H](CCCNC(=N)N)C(=O)N[C@H](C(=O)N[C@@H](CCC(=O)O)C(=O)N[C@@H](Cc1c[nH]c2ccccc12)C(=O)N[C@@H](CC(C)C)C(=O)N[C@@H](CCCNC(=N)N)C(=O)N[C@@H](CCCCNC(=O)OCCc1cn(CCNC(=O)COCCOCCNC(=O)COCCOCCNC(=O)CCC(NC(=O)CCCCCCCCCCCCCCC(=O)O)C(=O)O)nn1)C(=O)N[C@@H](CCCNC(=N)N)C(=O)N[C@@H](CC(C)C)C(=O)N[C@@H](CCC(N)=O)C(=O)N[C@@H](CC(=O)O)C(=O)N[C@H](C(=O)N[C@@H](Cc1c[nH]cn1)C(=O)N[C@@H](CC(N)=O)C(=O)N[C@@H](Cc1ccccc1)C(=O)O)C(C)C)C(C)C (stereo partly shown) [L6-GFA16-PTH] (H-SVSEIQLMHNLGRHLNSMERVEWLRK(X1)RLQDVHNF-OH)
Tmax ([3]; in vivo, sc, s.c. 8.6 μg/kg, summary of Table 3, read-out: peak times): ~1.6 h
